Common to all, as to test: FACS on transfected HEK293F cells, relative binding = AlexaFluor647 / GFP
Assay [1] deals with T1, KW27-20 (human CD39 mutant, C-terminal EGFP) (human, UniProt P49961 1-510).
T1 construct: expressed on HEK293F cells; not shown: C-terminal EGFP fusion (vector pCMV3-GFPSpark)
T1 chain: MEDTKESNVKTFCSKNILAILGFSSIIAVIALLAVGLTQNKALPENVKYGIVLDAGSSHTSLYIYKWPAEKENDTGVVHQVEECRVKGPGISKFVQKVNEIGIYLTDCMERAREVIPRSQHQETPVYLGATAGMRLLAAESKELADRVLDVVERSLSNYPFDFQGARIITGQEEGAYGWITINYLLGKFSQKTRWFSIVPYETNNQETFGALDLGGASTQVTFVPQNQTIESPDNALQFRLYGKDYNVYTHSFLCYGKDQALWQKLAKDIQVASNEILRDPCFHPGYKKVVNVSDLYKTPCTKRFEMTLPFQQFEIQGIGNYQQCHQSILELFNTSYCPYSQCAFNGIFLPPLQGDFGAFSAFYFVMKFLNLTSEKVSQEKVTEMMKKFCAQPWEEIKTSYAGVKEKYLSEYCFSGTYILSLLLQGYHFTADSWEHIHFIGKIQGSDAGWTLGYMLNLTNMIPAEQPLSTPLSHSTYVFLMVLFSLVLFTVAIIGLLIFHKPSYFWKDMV
As for the experimental part:
(§1) Briefly, the human CD39 mutants were generated by gene synthesis and then cloned into an expression vector pCMV3-GFPSpark. The vectors containing the validated mutated sequences were prepared and transfected into HEK293F cells. Three days post transfection, the cells were collected to testing EGFP for transgene expression. A range of dosages of antibodies (start from 100 nM, 3-folds dilution, 11 points) were tested on the 20 generated mutants and stained by AlexFluor647 labelled anti-hIgG by FACS. Antibody binding was descripted as relative binding which is derived from AlexFluor647 intensity divided by GFP intensity.

For assay [2], the target named is T2, KW27-6 (human CD39 mutant, C-terminal EGFP) (human, UniProt P49961 1-510).
T2 construct: expressed on HEK293F cells; not shown: C-terminal EGFP fusion (vector pCMV3-GFPSpark)
T2 chain: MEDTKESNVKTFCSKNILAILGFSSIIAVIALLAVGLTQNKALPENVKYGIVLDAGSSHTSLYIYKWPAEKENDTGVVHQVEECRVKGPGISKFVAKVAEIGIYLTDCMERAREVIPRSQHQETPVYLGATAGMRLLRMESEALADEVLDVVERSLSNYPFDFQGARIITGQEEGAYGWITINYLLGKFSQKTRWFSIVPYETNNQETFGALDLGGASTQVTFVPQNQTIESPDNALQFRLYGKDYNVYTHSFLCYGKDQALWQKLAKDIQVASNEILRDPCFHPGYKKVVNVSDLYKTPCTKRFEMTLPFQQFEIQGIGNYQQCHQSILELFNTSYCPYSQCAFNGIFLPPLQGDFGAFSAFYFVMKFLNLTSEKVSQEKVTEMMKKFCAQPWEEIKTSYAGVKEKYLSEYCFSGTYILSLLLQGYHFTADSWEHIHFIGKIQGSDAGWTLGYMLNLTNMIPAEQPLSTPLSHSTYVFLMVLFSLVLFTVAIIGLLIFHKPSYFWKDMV
As for the experimental part:
as §1

Assay [3] concerns the target T3, KW27-2 (human CD39 mutant, C-terminal EGFP) (human, UniProt P49961 1-510).
T3 construct: expressed on HEK293F cells; not shown: C-terminal EGFP fusion (vector pCMV3-GFPSpark)
T3 chain: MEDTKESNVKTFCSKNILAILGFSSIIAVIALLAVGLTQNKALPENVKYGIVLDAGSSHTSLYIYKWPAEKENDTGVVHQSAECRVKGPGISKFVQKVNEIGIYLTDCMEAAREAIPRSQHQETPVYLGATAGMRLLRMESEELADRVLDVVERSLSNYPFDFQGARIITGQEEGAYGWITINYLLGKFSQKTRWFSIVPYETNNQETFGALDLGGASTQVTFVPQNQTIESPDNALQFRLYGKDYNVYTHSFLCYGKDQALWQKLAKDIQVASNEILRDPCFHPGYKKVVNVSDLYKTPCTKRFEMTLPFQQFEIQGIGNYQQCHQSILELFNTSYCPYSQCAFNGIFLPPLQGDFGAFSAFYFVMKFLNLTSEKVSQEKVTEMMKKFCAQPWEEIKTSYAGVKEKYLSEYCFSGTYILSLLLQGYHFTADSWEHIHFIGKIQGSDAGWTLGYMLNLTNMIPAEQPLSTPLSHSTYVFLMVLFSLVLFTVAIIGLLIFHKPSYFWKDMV
As for the experimental part: as §1

The target of assay [4] is T4, KW27-16 (human CD39 mutant, C-terminal EGFP) (human, UniProt P49961 1-510).
T4 construct: expressed on HEK293F cells; not shown: C-terminal EGFP fusion (vector pCMV3-GFPSpark)
T4 chain: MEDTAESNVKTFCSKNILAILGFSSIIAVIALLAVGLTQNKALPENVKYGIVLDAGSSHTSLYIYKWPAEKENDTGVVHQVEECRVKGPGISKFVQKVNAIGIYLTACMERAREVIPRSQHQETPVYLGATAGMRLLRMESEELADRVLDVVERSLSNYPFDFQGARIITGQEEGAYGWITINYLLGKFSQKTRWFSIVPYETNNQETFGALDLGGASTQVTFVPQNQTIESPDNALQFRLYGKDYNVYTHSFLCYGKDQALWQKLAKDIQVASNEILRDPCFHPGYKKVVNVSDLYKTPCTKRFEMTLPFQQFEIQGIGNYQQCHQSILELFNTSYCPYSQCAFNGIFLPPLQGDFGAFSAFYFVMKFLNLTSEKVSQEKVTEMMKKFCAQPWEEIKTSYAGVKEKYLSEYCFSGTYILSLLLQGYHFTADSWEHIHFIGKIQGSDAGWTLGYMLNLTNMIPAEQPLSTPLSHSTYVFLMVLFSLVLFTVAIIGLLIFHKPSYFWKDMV
The procedure:
as §1

The text below walks through data of US20210388105A1 (ELPISCIENCE SUZHOU BIOPHARMA, published 2021).

B1: c35 (antibody, V domains shown)
VH: EVRLQQSGAELVKPGASVKLSCTASGFNIEDTYVHWMKQRPEQGLEWIGRIDPAIDNSKYDPKFQGKATITAVSSSNTAYLQLSSLTSEDTAVYYCALYDGYNVYAMDYWGQGTSVTVSS
VL: DIVMTQAAFSNPVTLGTSASISCRSSKNLLHSNGITYLYWYLQRPGQSPQLLIYRASTLASGVPNRFSGSESGTDFTLRISRVEAEDVGVYYCAQLLELPHTFGGGTKLEIK
notes: its making is not described; also called chimeric antibody c35
For the molecule B1, the binding result in assay [1] and in assay [2] was “binds” throughout.

B2: hu23.H5L5 (antibody, V domains shown)
VH: QVQLVQSGAEVKKPGASVKVSCKASGYNLKDTFLHWVRQAPGQGLEWMGRIDPANGNIKYDPKFQGRVTITADTSANTAYMELISLRSEDTAVYYCANSPYYYGSGYRIFDVWGQGTTVTVSS
VL: QIVLTQSPATLSLSPGERATLSCSAFSSVNYMHWYQQKPGQAPRLLIYTTSNLASGIPTRFSGSGSGTSYTLTISSLEPEDFAVYYCQQRSTYPFTFGQGTKLEIK
notes: humanized c23
On to B2, for which the binding result in assay [3] was “binds”; in assay [2] it was “no binding”; in assay [4] it was “binds”.

B3: c34 (antibody, V domains shown)
VH: EIQVQQSGPELVKPGASVKVSCKASGYSFTDYNMYWVKQSHGKSLEWIGFIDPYNGYTSYNQKFKGKATLTIDKSSSTAFMHLNSLTSEDSAVYYCAIYGYDDAYYFDYWGQGTTLTVSS
VL: QIVLTQSPAIMSASPGEKVTITCSATSSVSYMHWFRQKPGTSPKLWIYSTSNLASGVPARFSGSGSGTSYSLTISRMAAEDAATYYCQQRITYPFTFGSGTKLEIT
notes: its making is not described; also called chimeric antibody c34
As to B3, the binding result in assay [1] was “binds”; in assay [3] it was “binds”; in assay [2], “binds”; in assay [4], “no binding”.

B4: Antibody 9-8B (antibody, V domains shown)
VH: QIQLVQSGPELKKPGETVKISCKASGYTFTHYGMNWVKQAPGKGLKWMGWINTYTGELTYADDFKGRFAFSLETSASTAYLQINNLKNEDTATYFCARRAYYRYDYVMDYWGQGTSVTVSS
VL: DIVMTQSQKFMSTSVGDRVSVTCKASHNVGTNVAWYQQKPGQSPKALIYSASYRYSGVPGRFTGSGSGTDFTLTISNVQSEDLAEYFCHQYNNYPYTFGGGTKLEIK
Turning to B4, the binding result is “binds” in assay [1], “binds” in assay [3], “no binding” in assay [2] and “binds” in assay [4].

B5: Antibody T895 (antibody, V domains shown)
VH: EVQLQQSGPELVKPGASVKMSCKASGYTFTDYNMHWVKQSHGRTLEWIGYIVPLNGGSTFNQKFKGRATLTVNTSSRTAYMELRSLTSEDSAAYYCARGGTRFAYWGQGTLVTVSA
VL: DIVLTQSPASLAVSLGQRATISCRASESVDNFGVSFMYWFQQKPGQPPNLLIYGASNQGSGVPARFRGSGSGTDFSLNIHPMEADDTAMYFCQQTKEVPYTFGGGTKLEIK
notes: also called 31895
Consider B5, for which the binding result is given as “no binding” in assay [1], “binds” in assay [3], “binds” in assay [2] and “binds” in assay [4].
